# From IntAct's records for PubMed 29858488
# B1: Motile sperm domain-containing protein 2 (Homo sapiens), Q8NHP6 (parent)
# chain: MAENHAQNKAKLISETRRRFEAEYVTDKSDKYDARDVERLQQDDNWVESYLSWRHNIVDETLKMLDESFQWRKEISVNDLNESSIPRWLLEIGVIYLHGYDKEGNKLFWIRVKYHVKDQKTILDKKKLIAFWLERYAKRENGKPVTVMFDLSETGINSIDMDFVRFIINCFKVYYPKYLSKIVIFDMPWLMNAAFKIVKTWLGPEAVSLLKFTSKNEVQDYVSVEYLPPHMGGTDPFKYSYPPLVDDDFQTPLCENGPITSEDETSSKEDIESDGKETLETISNEEQTPLLKKINPTESTSKAEENEKVDSKVKAFKKPLSVFKGPLLHISPAEELYFGSTESGEKKTLIVLTNVTKNIVAFKVRTTAPEKYRVKPSNSSCDPGASVDIVVSPHGGLTVSAQDRFLIMAAEMEQSSGTGPAELTQFWKEVPRNKVMEHRLRCHTVESSKPNTLTLKDNAFNMSDKTSEDICLQLSRLLESNRKLEDQVQRCIWFQQLLLSLTMLLLAFVTSFFYLLYS
# partner: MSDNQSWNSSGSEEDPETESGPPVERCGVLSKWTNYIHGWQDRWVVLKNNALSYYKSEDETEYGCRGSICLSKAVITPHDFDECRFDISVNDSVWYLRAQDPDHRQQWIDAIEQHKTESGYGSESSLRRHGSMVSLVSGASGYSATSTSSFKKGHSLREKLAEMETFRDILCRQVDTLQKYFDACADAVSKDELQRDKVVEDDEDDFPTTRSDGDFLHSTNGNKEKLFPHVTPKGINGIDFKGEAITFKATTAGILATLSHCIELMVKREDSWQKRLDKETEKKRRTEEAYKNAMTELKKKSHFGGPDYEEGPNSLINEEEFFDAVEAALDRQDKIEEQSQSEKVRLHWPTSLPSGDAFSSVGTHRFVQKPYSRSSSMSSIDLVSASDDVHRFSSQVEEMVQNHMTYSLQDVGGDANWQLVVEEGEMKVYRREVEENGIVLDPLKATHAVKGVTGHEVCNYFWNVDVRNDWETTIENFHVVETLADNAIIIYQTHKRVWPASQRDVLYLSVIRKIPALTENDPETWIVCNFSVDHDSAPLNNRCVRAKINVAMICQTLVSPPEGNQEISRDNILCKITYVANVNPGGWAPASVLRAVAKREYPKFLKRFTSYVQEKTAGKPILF
# B2: STARD3 N-terminal-like protein (Homo sapiens), O95772 (parent)
# chain: MNHLPEDMENALTGSQSSHASLRNIHSINPTQLMARIESYEGREKKGISDVRRTFCLFVTFDLLFVTLLWIIELNVNGGIENTLEKEVMQYDYYSSYFDIFLLAVFRFKVLILAYAVCRLRHWWAIALTTAVTSAFLLAKVILSKLFSQGAFGYVLPIISFILAWIETWFLDFKVLPQEAEEENRLLIVQDASERAALIPGGLSDGQFYSPPESEAGSEEAEEKQDSEKPLLEL
# partner: B1 chain
# B3: Motile sperm domain-containing protein 2 (Homo sapiens), Q8NHP6 (parent)
# chain: B1 chain
# partner: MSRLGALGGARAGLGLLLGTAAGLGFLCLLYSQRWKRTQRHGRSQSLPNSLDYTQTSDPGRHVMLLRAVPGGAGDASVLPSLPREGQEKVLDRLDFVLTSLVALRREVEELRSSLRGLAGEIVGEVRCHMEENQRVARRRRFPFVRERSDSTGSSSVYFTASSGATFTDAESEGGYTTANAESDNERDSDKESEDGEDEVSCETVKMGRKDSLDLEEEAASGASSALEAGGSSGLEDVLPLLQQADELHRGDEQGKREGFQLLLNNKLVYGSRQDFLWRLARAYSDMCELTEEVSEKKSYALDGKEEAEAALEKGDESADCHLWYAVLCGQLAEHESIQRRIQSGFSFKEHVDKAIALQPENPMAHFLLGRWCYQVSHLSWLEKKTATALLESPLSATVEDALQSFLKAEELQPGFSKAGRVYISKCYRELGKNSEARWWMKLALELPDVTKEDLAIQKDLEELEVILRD
# B4: Ceramide transfer protein (Homo sapiens), Q9Y5P4 (parent)
# chain: B1 partner
# partner: B1 chain
# B5: Oxysterol-binding protein-related protein 1 (Homo sapiens), Q9BXW6 (parent)
# chain: MNTEAEQQLLHHARNGNAEEVRQLLETMARNEVIADINCKGRSKSNLGWTPLHLACYFGHRQVVQDLLKAGAEVNVLNDMGDTPLHRAAFTGRKELVMLLLEYNADTTIVNGSGQTAKEVTHAEEIRSMLEAVERTQQRKLEELLLAAAREGKTTELTALLNRPNPPDVNCSDQLGNTPLHCAAYRAHKQCALKLLRSGADPNLKNKNDQKPLDLAQGAEMKHILVGNKVIYKALKRYEGPLWKSSRFFGWRLFWVVLEHGVLSWYRKQPDAVHNIYRQGCKHLTQAVCTVKSTDSCLFFIKCFDDTIHGFRVPKNSLQQSREDWLEAIEEHSAYSTHYCSQDQLTDEEEEDTVSAADLKKSLEKAQSCQQRLDREISNFLKMIKECDMAKEMLPSFLQKVEVVSEASRETCVALTDCLNLFTKQEGVRNFKLEQEQEKNKILSEALETLATEHHELEQSLVKGSPPASILSEDEFYDALSDSESERSLSRLEAVTARSFEEEGEHLGSRKHRMSEEKDCGGGDALSNGIKKHRTSLPSPMFSRNDFSIWSILRKCIGMELSKITMPVIFNEPLSFLQRLTEYMEHTYLIHKASSLSDPVERMQCVAAFAVSAVASQWERTGKPFNPLLGETYELVRDDLGFRLISEQVSHHPPISAFHAEGLNNDFIFHGSIYPKLKFWGKSVEAEPKGTITLELLEHNEAYTWTNPTCCVHNIIVGKLWIEQYGNVEIINHKTGDKCVLNFKPCGLFGKELHKVEGYIQDKSKKKLCALYGKWTECLYSVDPATFDAYKKNDKKNTEEKKNSKQMSTSEELDEMPVPDSESVFIIPGSVLLWRIAPRPPNSAQMYNFTSFAMVLNEVDKDMESVIPKTDCRLRPDIRAMENGEIDQASEEKKRLEEKQRAARKNRSKSEEDWKTRWFHQGPNPYNGAQDWIYSGSYWDRNYFNLPDIY
# partner: B1 chain
# Variants of: B1
# Details: with cert_human CERT1, Q9Y5P4
row,effect of a mutation on the interaction,Variant
1,disrupting interaction strength,MAENHAQNKAKLISETRRRFEAEYVTDKSDKYDARDVERLQQDDNWVESYLSWRHNIVDETLKMLDESFQWRKEISVNDLNESSIPRWLLEIGVIYLHGYDKEGNKLFWIRVKYHVKDQKTILDKKKLIAFWLERYAKRENGKPVTVMFDLSETGINSIDMDFVRFIINCFKVYYPKYLSKIVIFDMPWLMNAAFKIVKTWLGPEAVSLLKFTSKNEVQDYVSVEYLPPHMGGTDPFKYSYPPLVDDDFQTPLCENGPITSEDETSSKEDIESDGKETLETISNEEQTPLLKKINPTESTSKAEENEKVDSKVKAFKKPLSVFKGPLLHISPAEELYFGSTESGEKKTLIVLTNVTKNIVAFKVRTTAPEKYRVKPSNSSCDPGASVDIVVSPHGGLTVSAQDDFDIMAAEMEQSSGTGPAELTQFWKEVPRNKVMEHRLRCHTVESSKPNTLTLKDNAFNMSDKTSEDICLQLSRLLESNRKLEDQVQRCIWFQQLLLSLTMLLLAFVTSFFYLLYS [R404D;L406D]

# Variants of: B2
# Details: with mspd2_human MOSPD2, Q8NHP6
row,effect of a mutation on the interaction,Variant
1,disrupting interaction strength,MNHLPEDMENALTGSQSSHASLRNIHSINPTQLMARIESYEGREKKGISDVRRTFCLFVTFDLLFVTLLWIIELNVNGGIENTLEKEVMQYDYYSSYFDIFLLAVFRFKVLILAYAVCRLRHWWAIALTTAVTSAFLLAKVILSKLFSQGAFGYVLPIISFILAWIETWFLDFKVLPQEAEEENRLLIVQDASERAALIPGGLSDGQAASPPESEAGSEEAEEKQDSEKPLLEL [F208A;Y209A]

# Variants of: B3
# Details: with rmd3_human RMDN3, Q96TC7
row,effect of a mutation on the interaction,Variant
1,disrupting interaction strength,MAENHAQNKAKLISETRRRFEAEYVTDKSDKYDARDVERLQQDDNWVESYLSWRHNIVDETLKMLDESFQWRKEISVNDLNESSIPRWLLEIGVIYLHGYDKEGNKLFWIRVKYHVKDQKTILDKKKLIAFWLERYAKRENGKPVTVMFDLSETGINSIDMDFVRFIINCFKVYYPKYLSKIVIFDMPWLMNAAFKIVKTWLGPEAVSLLKFTSKNEVQDYVSVEYLPPHMGGTDPFKYSYPPLVDDDFQTPLCENGPITSEDETSSKEDIESDGKETLETISNEEQTPLLKKINPTESTSKAEENEKVDSKVKAFKKPLSVFKGPLLHISPAEELYFGSTESGEKKTLIVLTNVTKNIVAFKVRTTAPEKYRVKPSNSSCDPGASVDIVVSPHGGLTVSAQDDFDIMAAEMEQSSGTGPAELTQFWKEVPRNKVMEHRLRCHTVESSKPNTLTLKDNAFNMSDKTSEDICLQLSRLLESNRKLEDQVQRCIWFQQLLLSLTMLLLAFVTSFFYLLYS [R404D;L406D]

# Variants of: B4
# Details: with mspd2_human MOSPD2, Q8NHP6
row,effect of a mutation on the interaction,Variant
1,disrupting interaction strength,D324A

# Variants of: B5
# Details: with mspd2_human MOSPD2, Q8NHP6
row,effect of a mutation on the interaction,Variant
1,disrupting interaction strength,F476A;Y477A
